Assays:
[1] = target: FcgRI (UniProt P12314); test: SPR
[2] = target: human CD3 on T cells (Jurkat cells; human peripheral blood CD4+ and CD8+ T-cells) (human) (UniProt P07766); test: flow cytometry on Jurkat cells

Chain of FcgRI (P12314 16-288): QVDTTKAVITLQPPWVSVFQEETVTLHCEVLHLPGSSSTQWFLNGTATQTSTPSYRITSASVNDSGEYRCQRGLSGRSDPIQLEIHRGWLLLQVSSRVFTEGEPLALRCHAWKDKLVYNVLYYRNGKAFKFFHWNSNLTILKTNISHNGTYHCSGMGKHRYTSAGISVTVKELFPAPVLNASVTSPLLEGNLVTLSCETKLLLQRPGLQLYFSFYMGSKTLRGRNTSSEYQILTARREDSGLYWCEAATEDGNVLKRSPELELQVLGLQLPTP

Kd [1] [nM] | affinity (FACS) [2] [nM] | Substance
8.78 |  | KLH-hIgG4
 | 0.27 | OKT3-hIgG1 (antibody)

Source: patent US20250346685A1
